B1: JL11.11F12.C4 (antibody, V domains shown)
VH: EVQVQQSGPELVKPGASMKISCKASGYSFTGYTMNWVKQSHGKTLEWIGLINPYNGGTTYNQKFKGKATLTVDKSSSTAYMELLSLTSEDSAVYYCARRGSGYAMDYWGQGTSVTVS
VL: QIVLTQSPAIMSASLGERVAMTCTASSSVSSHYLHWYQQKPGSSPKLWIYSTSNLASGVPARFSGSGSGTSYSLTISSMEAEDAATYYCHQYHRSPWTFGGGTKLEIKR
B2: JL11.13G4.B11 (antibody, V domains shown)
VH: EVKLVESGGGLVKPGGSLKLSCAASGFAFSSYDMSWVRQTPEKRLEWVASISSDGSYTYYPDTVKGRFTISRDNARNTLNLQMSSLRSEDTALYFCARQDGYYLDYWGQGTTLTVSS
VL: EIVLTQSPALMAASPGEKVTITCSVSSSISSSKLYWYQQKSETSPKPWIYGTSNLASGVPVRFSGSGSGTSYSLTISSMEAEDAATYYCQQWSSYPLTFGAGTKLELKR

What was measured:
[1] = target: humanized 12G8 anti-IL-10 antibody; assay: sandwich ELISA: capture 13G4 0.5 ug/mL, humanized 12G8 100 ng/mL, detection biotinylated 11F12 0.5 ug/mL
[2] = target: humanized 12G8 anti-IL-10 antibody; assay: sandwich ELISA: capture 13G4 0.5 ug/mL, humanized 12G8 100 ng/mL, detection biotinylated 11F12 1.0 ug/mL
[3] = target: humanized 12G8 anti-IL-10 antibody; assay: sandwich ELISA: capture 13G4 0.5 ug/mL, humanized 12G8 100 ng/mL, detection biotinylated 11F12 2.0 ug/mL
[4] = target: humanized 12G8 anti-IL-10 antibody; assay: sandwich ELISA: capture 13G4 1.0 ug/mL, humanized 12G8 100 ng/mL, detection biotinylated 11F12 0.5 ug/mL
[5] = target: humanized 12G8 anti-IL-10 antibody; assay: sandwich ELISA: capture 13G4 1.0 ug/mL, humanized 12G8 100 ng/mL, detection biotinylated 11F12 1.0 ug/mL
[6] = target: humanized 12G8 anti-IL-10 antibody; assay: sandwich ELISA: capture 13G4 1.0 ug/mL, humanized 12G8 100 ng/mL, detection biotinylated 11F12 2.0 ug/mL
[7] = target: humanized 12G8 anti-IL-10 antibody; assay: sandwich ELISA: capture 13G4 2.0 ug/mL, humanized 12G8 100 ng/mL, detection biotinylated 11F12 0.5 ug/mL
[8] = target: humanized 12G8 anti-IL-10 antibody; assay: sandwich ELISA: capture 13G4 2.0 ug/mL, humanized 12G8 100 ng/mL, detection biotinylated 11F12 1.0 ug/mL
[9] = target: humanized 12G8 anti-IL-10 antibody; assay: sandwich ELISA: capture 13G4 2.0 ug/mL, humanized 12G8 100 ng/mL, detection biotinylated 11F12 2.0 ug/mL
[10] = target: humanized 12G8 anti-IL-10 antibody; assay: blocking ELISA: purified antibody titrated against biotinylated humanized 12G8, binding to coated human IL-10 read

Row | Signal:Noise Ratio [1] | Signal:Noise Ratio [2] | Signal:Noise Ratio [3] | Signal:Noise Ratio [4] | Signal:Noise Ratio [5] | Signal:Noise Ratio [6] | Signal:Noise Ratio [7] | Signal:Noise Ratio [8] | Signal:Noise Ratio [9] | IC50 [10] [nM] | Binder
1 | 10 | 8 | 8 | 32 | 40 | 25 | 22 | 7.5 | 20 | 2 | B1
2 | – | – | – | – | – | – | – | – | – | 1 | B2
